Assay results reported in patent US20250066487A1 (ABL BIO, published 2025).

Experiments:
[1] = molecular target: T1, human 4-1BB expressed on GloResponse NFκB-luc2/4-1BB Jurkat cells (Promega) (human, UniProt Q07011 24-255); experiment: cell-based or functional assay
[2] = molecular target: T1, human 4-1BB expressed on GloResponse …; experiment: cell-based or functional assay; remark: listed apart in the source
[3] = molecular target: T2, human 4-1BB-Fc protein (Sino Biological) (human, UniProt Q07011 24-186); experiment: ELISA, plate coated with human 4-1BB-Fc, detection with anti-human IgG-HRP
T2 construct: Bought protein; not shown: Fc part of the bought fusion protein
T2 sequence (Q07011 24-186 limits assumed): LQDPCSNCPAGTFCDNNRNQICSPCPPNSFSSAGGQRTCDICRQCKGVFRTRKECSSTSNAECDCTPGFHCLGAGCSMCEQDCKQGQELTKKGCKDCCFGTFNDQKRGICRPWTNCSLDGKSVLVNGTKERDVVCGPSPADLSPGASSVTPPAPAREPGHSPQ

T1 sequence (Q07011 24-255 limits assumed): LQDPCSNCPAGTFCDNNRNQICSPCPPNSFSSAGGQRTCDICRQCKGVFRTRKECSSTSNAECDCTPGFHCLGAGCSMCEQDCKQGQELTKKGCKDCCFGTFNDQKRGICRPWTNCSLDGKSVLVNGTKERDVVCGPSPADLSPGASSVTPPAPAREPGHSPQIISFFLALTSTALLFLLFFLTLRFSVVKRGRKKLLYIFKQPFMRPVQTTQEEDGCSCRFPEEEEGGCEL

B1: Urelumab (antibody, V domains shown)
VH: QVQLQQWGAGLLKPSETLSLTCAVYGGSFSGYYWSWIRQSPEKGLEWIGEINHGGYVTYNPSLESRVTISVDTSKNQFSLKLSSVTAADTAVYYCARDYGPGNYDWYFDLWGRGTLVTVSS
VL: EIVLTQSPATLSLSPGERATLSCRASQSVSSYLAWYQQKPGQAPRLLIYDASNRATGIPARFSGSGSGTDFTLTISSLEPEDFAVYYCQQRSNWPPALTFGGGTKVEIK
With B1 the “EC50, FcγRIIb-dependent 4-1BB bioassay” value [1] was 0.239 nM, the “Fold of induction (RLU), FcγRIIb-dependent 4-1BB bioassay” value [1] was 190 fold (RLU) and the “EC50, FcγRIIb-independent 4-1BB bioassay” value [2] was 0.537 nM. The “Fold of induction (RLU), FcγRIIb-independent 4-1BB bioassay” value [2] was 14.1 fold (RLU).

B2: AB41 (antibody, human IgG4 S228P, kappa, V domains shown)
VH: QVQLQQSGAEVIKPGASVKLSCKASGYTFSSYWMHWVRQAPGQGLEWIGEINPGNGHTNYNEKFKSRATLTGDTSTSTVYMELSSLRSEDTAVYYCARSFTTARAFAYWGQGTLVTVSS
VL: DIVMTQSPAFLSVTPGEKVTITCRASQTISDYLHWYQQKPDQAPKLLIKYASQSISGIPSRFSGSGSGTDFTFTISSLEAEDAATYYCQDGHSFPPTFGQGTKLEIKR
notes: Full-length IgG form; also called anti-4-1BB antibody AB41 (full-length IgG form)
B2 showed an EC50 [3] of 0.2 nM.

B3: 1A12 (antibody, human IgG4 S228P, lambda, V domains shown)
VH: EVQLLESGGGLVQPGGSLRLSCAASGFTFSGYDMSWVRQAPGKGLEWVSVIYPDDGNTYYADSVKGRFTISRDNSKNTLYLQMNSLRAEDAAVYYCAKHGGQKPTTKSSSAYGMDGWGQGTLVTVSS
VL: QSVLTQPPSASGTPGRRVTISCSGSSSNIGNNYVTWYQQLPGTAPKLLIYADSHRPSGVPDRFSGSKSGTSASLAISGLRSEDEADYYCATWDYSLSGYVFGGGTKLTVLG
notes: Full-length IgG form; also called 1Al2; anti-4-1BB antibody 1A12 (full-length IgG form)
Binder B3 has an EC50 [3] of 0.18 nM.
